B1: POLD1 (the catalytic and PCNA-binding subunit of Polδ), in MEFs (enzyme, mouse (endogenous in MEFs), UniProt P52431 1-1105, looked up)
chain: MDCKRRQGPGPGVPPKRARGHLWDEDEPSPSQFEANLALLEEIEAENRLQEAEEELQLPPEGTVGGQFSTADIDPRWRRPTLRALDPSTEPLIFQQLEIDHYVGSAPPLPEGPLPSRNSVPILRAFGVTDEGFSVCCHIQGFAPYFYTPAPPGFGAEHLSELQQELNAAISRDQRGGKELSGPAVLAIELCSRESMFGYHGHGPSPFLRITLALPRLMAPARRLLEQGVRVPGLGTPSFAPYEANVDFEIRFMVDADIVGCNWLELPAGKYVRRAEKKATLCQLEVDVLWSDVISHPPEGQWQRIAPLRVLSFDIECAGRKGIFPEPERDPVIQICSLGLRWGEPEPFLRLALTLRPCAPILGAKVQSYEREEDLLQAWADFILAMDPDVITGYNIQNFDLPYLISRAQALKVDRFPFLGRVTGLRSNIRDSSFQSRQVGRRDSKVISMVGRVQMDMLQVLLREHKLRSYTLNAVSFHFLGEQKEDVQHSIITDLQNGNEQTRRRLAVYCLKDAFLPLRLLERLMVLVNNVEMARVTGVPLGYLLTRGQQVKVVSQLLRQAMRQGLLMPVVKTEGSEDYTGATVIEPLKGYYDVPIATLDFSSLYPSIMMAHNLCYTTLLRPGAAQKLGLKPDEFIKTPTGDEFVKSSVRKGLLPQILENLLSARKRAKAELAQETDPLRRQVLDGRQLALKVSANSVYGFTGAQVGKLPCLEISQSVTGFGRQMIEKTKQLVESKYTVENGYDANAKVVYGDTDSVMCRFGVSSVAEAMSLGREAANWVSSHFPSPIRLEFEKVYFPYLLISKKRYAGLLFSSRSDAHDKMDCKGLEAVRRDNCPLVANLVTSSLRRILVDRDPDGAVAHAKDVISDLLCNRIDISQLVITKELTRAAADYAGKQAHVELAERMRKRDPGSAPSLGDRVPYVIIGAAKGVAAYMKSEDPLFVLEHSLPIDTQYYLEQQLAKPLLRIFEPILGEGRAESVLLRGDHTRCKTVLTSKVGGLLAFTKRRNCCIGCRSVIDHQGAVCKFCQPRESELYQKEVSHLNALEERFSRLWTQCQRCQGSLHEDVICTSRDCPIFYMRKKVRKDLEDQERLLQRFGPPGPEAW
notes: POLD1, catalytic subunit of DNA polymerase delta, mouse, endogenous in MEFs; source: endogenous, mouse embryonic fibroblasts (fixed cells)
B2: DNA ligase 1 (LIG1), in MEFs (enzyme, mouse (endogenous in MEFs), UniProt P37913 1-916, looked up)
chain: MQRSIMSFFQPTKEGKAKKPEKETPSSIREKEPPPKVALKERNQVVPESDSPVKRTGRKVAQVLSCEGEDEDEAPGTPKVQKPVSDSEQSSPPSPDTCPENSPVFNCSSPMDISPSGFPKRRTARKQLPKRTIQDTLEEQNEDKTKTAKKRKKEEETPKESLAEAEDIKQKEEKEGDQLIVPSEPTKSPESVTLTKTENIPVCKAGVKLKPQEEEQSKPPARGAKTLSSFFTPRKPAVKTEVKQEESGTLRKEETKGTLDPANYNPSKNNYHPIEDACWKHGQKVPFLAVARTFEKIEEVSARLKMVETLSNLLRSVVALSPPDLLPVLYLSLNRLGPPQQGLELGVGDGVLLKAVAQATGRQLESIRAEVAEKGDVGLVAENSRSTQRLMLPPPPLTISGVFTKFCDIARLTGSASMAKKMDIIKGLFVACRHSEARYIARSLSGRLRLGLAEQSVLAALAQAVSLTPPGQEFPTVVVDAGKGKTAEARKMWLEEQGMILKQTFCEVPDLDRIIPVLLEHGLERLPEHCKLSPGVPLKPMLAHPTRGVSEVLKRFEEVDFTCEYKYDGQRAQIHVLEGGEVKIFSRNQEDNTGKYPDIISRIPKIKHPSVTSFILDTEAVAWDREKKQIQPFQVLTTRKRKEVDASEIQVQVCLYAFDLIYLNGESLVRQPLSRRRQLLRENFVETEGEFVFTTSLDTKDTEQIAEFLEQSVKDSCEGLMVKTLDVDATYEIAKRSHNWLKLKKDYLDGVGDTLDLVVIGAYLGRGKRAGRYGGFLLAAYDEESEELQAICKLGTGFSDEELEEHHQSLQALVLPTPRPYVRIDGAVAPDHWLDPSIVWEVKCADLSLSPIYPAARGLVDKEKGISLRFPRFIRVRKDKQPEQATTSNQVASLYRKQSQIQNQQSSDLDSDVEDY
notes: DNA ligase 1, mouse, endogenous in MEFs; source: endogenous, mouse embryonic fibroblasts (fixed cells)

Columns and labels:
[1] = biological target: DNA ligase 1 (LIG1), in MEFs (mouse (endogenous in MEFs)) (UniProt P37913); assay: proximity ligation; Duolink PLA on endogenous proteins in fixed WT MEFs; foci per nucleus
[2] = biological target: proliferating cell nuclear antigen (PCNA), in MEFs (mouse (endogenous in MEFs)) (UniProt P17918); assay: as above
[3] = biological target: proliferating cell nuclear antigen (PCNA), in MEFs (mouse (endogenous in MEFs)) (UniProt P17918); assay: proximity ligation; Duolink PLA on endogenous proteins in fixed Jmjd1b-/- MEFs; foci per nucleus
[4] = biological target: DNA ligase 1 (LIG1), in MEFs (mouse (endogenous in MEFs)) (UniProt P37913); assay: FRET or BRET; FRET microscopy in fixed Jmjd1b-/- MEFs; Alexa Fluor 568 (donor) and Alexa Fluor 647 (acceptor) secondary antibodies; corrected FRET intensity at PCNA foci
[5] = biological target: DNA ligase 1 (LIG1), in MEFs (mouse (endogenous in MEFs)) (UniProt P37913); assay: FRET or BRET; FRET microscopy in fixed WT MEFs; primary antibodies with Alexa Fluor 568 (donor) and Alexa Fluor 647 (acceptor) secondary antibodies; corrected FRET intensity at PCNA foci
[6] = biological target: DNA ligase 1 (LIG1), in MEFs (mouse (endogenous in MEFs)) (UniProt P37913); assay: proximity ligation; Duolink PLA on endogenous proteins in fixed FEN1 R192Q MEFs; foci per nucleus
[7] = biological target: proliferating cell nuclear antigen (PCNA), in MEFs (mouse (endogenous in MEFs)) (UniProt P17918); assay: as above
[8] = biological target: DNA ligase 1 (LIG1), in MEFs (mouse (endogenous in MEFs)) (UniProt P37913); assay: FRET or BRET; FRET microscopy in fixed FEN1 R192Q MEFs; Alexa Fluor 568 (donor) and Alexa Fluor 647 (acceptor) secondary antibodies; corrected FRET intensity at PCNA foci
[9] = biological target: Flap endonuclease 1 (FEN1), in MEFs (mouse (endogenous in MEFs)) (UniProt P39749); assay: proximity ligation; Duolink PLA on endogenous proteins in fixed WT MEFs; foci per nucleus
[10] = biological target: T1, proliferating cell nuclear antigen (PCNA), in MEFs (mouse (endogenous in MEFs), UniProt P17918 1-261); assay: as above; conditions: partners not purified
T1 construct: PCNA, mouse, endogenous in MEFs; source: endogenous, mouse embryonic fibroblasts (fixed cells)

[11] = biological target: B2; assay: as above; conditions: partners not purified
[12] = biological target: Flap endonuclease 1 (FEN1), in MEFs (mouse (endogenous in MEFs)) (UniProt P39749); assay: FRET or BRET; FRET microscopy in fixed WT MEFs; primary antibodies with Alexa Fluor 568 (donor) and Alexa Fluor 647 (acceptor) secondary antibodies; corrected FRET intensity at PCNA foci

proliferating cell nuclear antigen (PCNA), in MEFs (mouse (endogenous in MEFs)), sequence (P17918 whole entry): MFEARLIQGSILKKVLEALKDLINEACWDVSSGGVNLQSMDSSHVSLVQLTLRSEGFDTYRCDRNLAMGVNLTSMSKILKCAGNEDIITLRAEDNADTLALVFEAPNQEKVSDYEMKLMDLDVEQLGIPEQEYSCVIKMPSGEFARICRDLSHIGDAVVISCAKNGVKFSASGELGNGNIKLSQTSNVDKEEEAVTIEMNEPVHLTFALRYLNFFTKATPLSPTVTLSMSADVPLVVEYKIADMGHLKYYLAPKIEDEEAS
T1 sequence (P17918 whole entry): as above
Flap endonuclease 1 (FEN1), in MEFs (mouse (endogenous in MEFs)), sequence (P39749 whole entry): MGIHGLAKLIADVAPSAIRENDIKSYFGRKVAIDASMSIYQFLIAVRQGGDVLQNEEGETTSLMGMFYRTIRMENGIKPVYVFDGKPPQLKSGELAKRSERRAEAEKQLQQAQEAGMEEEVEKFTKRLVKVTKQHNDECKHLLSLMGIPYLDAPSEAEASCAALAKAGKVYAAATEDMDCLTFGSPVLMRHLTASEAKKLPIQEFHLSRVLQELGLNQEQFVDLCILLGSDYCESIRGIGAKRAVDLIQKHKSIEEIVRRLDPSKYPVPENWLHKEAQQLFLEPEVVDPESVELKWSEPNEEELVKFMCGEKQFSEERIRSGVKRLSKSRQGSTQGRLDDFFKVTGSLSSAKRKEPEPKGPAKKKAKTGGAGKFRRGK

Molecule: Flap endonuclease 1 (FEN1), in MEFs (from UniProt P39749 1-378) (enzyme)
- PLA foci per MEF (PLA foci per MEF) [1]: 20
- PLA foci per nucleus [1]: 18.8 foci/nucleus
- PLA foci per MEF (PLA foci per MEF) [2]: 40
- PLA foci per nucleus [2]: 70.3 foci/nucleus
- PLA foci per nucleus [3]: 76.2 foci/nucleus
- FEN1-LIG1 FRET signal at PCNA foci, early middle S phase [4]: 4.8
- FEN1-LIG1 FRET signal at PCNA foci, late S phase [4]: 7.4
- FEN1-LIG1 FRET level at PCNA foci, throughout S phase [5]: 5.8
- FEN1-LIG1 FRET signal at PCNA foci, early middle S phase [5]: 5.6
- FEN1-LIG1 FRET signal at PCNA foci, late S phase [5]: 6.3
- FRET signal (corrected FRET intensity at PCNA foci) [5]: 18.6

Molecule: FEN1 R192Q, in FEN1 R192Q MEFs (from UniProt P39749 1-378) (enzyme)
- PLA foci per nucleus [6]: 9.8 foci/nucleus
- PLA foci per nucleus [7]: 31.7 foci/nucleus
- FEN1-LIG1 FRET level at PCNA foci, throughout S phase [8]: 2

Molecule: B1
- PLA foci per MEF (PLA foci per MEF) [9]: 20
- PLA foci per MEF [10]: ~40 PLA foci per MEF
- PLA foci per MEF [11]: < 5 PLA foci per MEF
- FRET signal (corrected FRET intensity at PCNA foci) [12]: 20.1

Molecule: B2
- PLA foci per MEF [10]: ~40 PLA foci per MEF

— doi:10.1101/2025.10.06.680735, “JMJD1B-mediated FEN1 demethylation allows timely switching of Okazaki fragment maturation core enzymes to avoid mutagenic flap ligation by PARP1-LIG3” (bioRxiv, 2025)
